These results are taken from patent US20070298445, “Cancer Therapeutic” (published 2007).

This series concerns the target ZNF306 (UniProt Q9BRR0 Q9BRR0:1-538). The series is described as follows: cell_activity; luciferase induction, duplicate tandem copies upstream of minimal tk promoter. As to conditions: tags: expression plasmid or cDNA in colon cancer cells.

ZNF306, sequence (Q9BRR0 whole entry, one chain of several): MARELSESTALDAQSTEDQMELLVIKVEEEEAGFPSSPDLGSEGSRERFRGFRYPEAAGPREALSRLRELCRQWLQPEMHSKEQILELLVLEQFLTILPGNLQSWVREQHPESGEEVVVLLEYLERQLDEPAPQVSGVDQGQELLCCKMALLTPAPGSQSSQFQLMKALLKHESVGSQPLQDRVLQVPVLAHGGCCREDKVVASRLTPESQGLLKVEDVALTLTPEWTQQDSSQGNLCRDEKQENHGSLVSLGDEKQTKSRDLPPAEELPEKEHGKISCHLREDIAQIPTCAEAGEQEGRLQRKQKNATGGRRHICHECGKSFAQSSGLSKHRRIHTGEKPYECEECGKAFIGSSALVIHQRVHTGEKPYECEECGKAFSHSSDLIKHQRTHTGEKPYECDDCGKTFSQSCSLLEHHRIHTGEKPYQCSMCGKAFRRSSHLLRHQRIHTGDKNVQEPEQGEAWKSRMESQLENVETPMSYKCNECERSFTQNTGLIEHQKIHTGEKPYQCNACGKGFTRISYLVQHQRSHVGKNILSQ

B1: integrin beta4 intron 1 wt probe (dsDNA)
DNA 1: TGAGGGG
DNA 2: CCCCTCA
B1: the activity was determined as 6 fold.
